According to paper PMC11235169 (2024):
Each block holds one binder with its values, some of them ahead of it.

Key:
[1] = biological target: T1, recombinant sushi domain protein; test: ITC
T1 chain: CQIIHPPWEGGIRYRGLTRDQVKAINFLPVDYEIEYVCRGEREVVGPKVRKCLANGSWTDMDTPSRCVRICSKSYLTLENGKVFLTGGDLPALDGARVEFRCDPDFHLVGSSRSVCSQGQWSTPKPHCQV

[2] = biological target: T1, recombinant sushi domain protein; test: FP
TMR-hAJAP17 (human) = biological target: T2, TMR-hAJAP17 (human); test: fluorescence polarisation; saturation binding: sushi domain protein (0.73 to 1500 nM) added to TMR-hAJAP17 (25 nM); 20 mM NaPi pH 6.8, 50 mM NaCl, 0.5 mM EDTA, 1% BSA, 25°C; one-site binding model
T2 chain: ETEFIAWGPTGDEEALE

[3] = biological target: recombinant sushi domain protein; test: fluorescence polarisation; competition: preformed complex of sushi domain protein (40 nM) and TMR-hAJAP17 (25 nM) outcompeted with unlabeled peptides (0.006 to 6.25 μM or 0.03 to 62.5 μM); 20 mM NaPi pH 6.8, 50 mM NaCl, 0.5 mM EDTA, 1% BSA, 25°C; Ki calculated from sigmoidal dose-response fits
[4] = biological target: recombinant sushi domain protein; test: ITC; 100 μM hAJAP17 or 300 μM W183C peptide injected into 10 or 30 μM sushi domain protein in the cell; 25°C; 20 mM NaPi pH 7.4; one-site binding model

- Kd [1]: 46.7 µM
- Ki [2]: 49.3 µM
B1: hAJAP17-W183C (peptide)
peptide: ETEFIACGPTGDEEALE

- Kd (TMR-hAJAP17 (human)): 0.0204 µM
B2: recombinant sushi domain protein (domain or fragment)
chain: CQIIHPPWEGGIRYRGLTRDQVKAINFLPVDYEIEYVCRGEREVVGPKVRKCLANGSWTDMDTPSRCVRICSKSYLTLENGKVFLTGGDLPALDGARVEFRCDPDFHLVGSSRSVCSQGQWSTPKPHCQV
modifications: not checked

- Ki [2]: 44.8 µM
B3: mAJAP17-W183C (peptide)
chain: ETEFIACGPTGDEDALE
modifications: Limits taken by alignment with the printed human 17-mer … (177-193, W183 at position 7; W183 has the same number in mouse). C-terminal amide is likely, as printed for the TMR-hAJAP17 peptide, but is not stated for this one

- Ki [3]: 0.06 µM
- Kd [4]: 0.047 µM
- stoichiometry N [4]: 1
B4: hAJAP17 (peptide)
peptide: ETEFIAWGPTGDEEALE
